{
  "source": "patent US20040248240A1",
  "assay_in_all_cases": "cell-based or functional assay",
  "key": {"[1]": {"biological_target": "rat brain type IIA α sub-unit of the voltage-gated sodium channel (rat) (UniProt P04775)", "sequence (P04775 whole entry)": "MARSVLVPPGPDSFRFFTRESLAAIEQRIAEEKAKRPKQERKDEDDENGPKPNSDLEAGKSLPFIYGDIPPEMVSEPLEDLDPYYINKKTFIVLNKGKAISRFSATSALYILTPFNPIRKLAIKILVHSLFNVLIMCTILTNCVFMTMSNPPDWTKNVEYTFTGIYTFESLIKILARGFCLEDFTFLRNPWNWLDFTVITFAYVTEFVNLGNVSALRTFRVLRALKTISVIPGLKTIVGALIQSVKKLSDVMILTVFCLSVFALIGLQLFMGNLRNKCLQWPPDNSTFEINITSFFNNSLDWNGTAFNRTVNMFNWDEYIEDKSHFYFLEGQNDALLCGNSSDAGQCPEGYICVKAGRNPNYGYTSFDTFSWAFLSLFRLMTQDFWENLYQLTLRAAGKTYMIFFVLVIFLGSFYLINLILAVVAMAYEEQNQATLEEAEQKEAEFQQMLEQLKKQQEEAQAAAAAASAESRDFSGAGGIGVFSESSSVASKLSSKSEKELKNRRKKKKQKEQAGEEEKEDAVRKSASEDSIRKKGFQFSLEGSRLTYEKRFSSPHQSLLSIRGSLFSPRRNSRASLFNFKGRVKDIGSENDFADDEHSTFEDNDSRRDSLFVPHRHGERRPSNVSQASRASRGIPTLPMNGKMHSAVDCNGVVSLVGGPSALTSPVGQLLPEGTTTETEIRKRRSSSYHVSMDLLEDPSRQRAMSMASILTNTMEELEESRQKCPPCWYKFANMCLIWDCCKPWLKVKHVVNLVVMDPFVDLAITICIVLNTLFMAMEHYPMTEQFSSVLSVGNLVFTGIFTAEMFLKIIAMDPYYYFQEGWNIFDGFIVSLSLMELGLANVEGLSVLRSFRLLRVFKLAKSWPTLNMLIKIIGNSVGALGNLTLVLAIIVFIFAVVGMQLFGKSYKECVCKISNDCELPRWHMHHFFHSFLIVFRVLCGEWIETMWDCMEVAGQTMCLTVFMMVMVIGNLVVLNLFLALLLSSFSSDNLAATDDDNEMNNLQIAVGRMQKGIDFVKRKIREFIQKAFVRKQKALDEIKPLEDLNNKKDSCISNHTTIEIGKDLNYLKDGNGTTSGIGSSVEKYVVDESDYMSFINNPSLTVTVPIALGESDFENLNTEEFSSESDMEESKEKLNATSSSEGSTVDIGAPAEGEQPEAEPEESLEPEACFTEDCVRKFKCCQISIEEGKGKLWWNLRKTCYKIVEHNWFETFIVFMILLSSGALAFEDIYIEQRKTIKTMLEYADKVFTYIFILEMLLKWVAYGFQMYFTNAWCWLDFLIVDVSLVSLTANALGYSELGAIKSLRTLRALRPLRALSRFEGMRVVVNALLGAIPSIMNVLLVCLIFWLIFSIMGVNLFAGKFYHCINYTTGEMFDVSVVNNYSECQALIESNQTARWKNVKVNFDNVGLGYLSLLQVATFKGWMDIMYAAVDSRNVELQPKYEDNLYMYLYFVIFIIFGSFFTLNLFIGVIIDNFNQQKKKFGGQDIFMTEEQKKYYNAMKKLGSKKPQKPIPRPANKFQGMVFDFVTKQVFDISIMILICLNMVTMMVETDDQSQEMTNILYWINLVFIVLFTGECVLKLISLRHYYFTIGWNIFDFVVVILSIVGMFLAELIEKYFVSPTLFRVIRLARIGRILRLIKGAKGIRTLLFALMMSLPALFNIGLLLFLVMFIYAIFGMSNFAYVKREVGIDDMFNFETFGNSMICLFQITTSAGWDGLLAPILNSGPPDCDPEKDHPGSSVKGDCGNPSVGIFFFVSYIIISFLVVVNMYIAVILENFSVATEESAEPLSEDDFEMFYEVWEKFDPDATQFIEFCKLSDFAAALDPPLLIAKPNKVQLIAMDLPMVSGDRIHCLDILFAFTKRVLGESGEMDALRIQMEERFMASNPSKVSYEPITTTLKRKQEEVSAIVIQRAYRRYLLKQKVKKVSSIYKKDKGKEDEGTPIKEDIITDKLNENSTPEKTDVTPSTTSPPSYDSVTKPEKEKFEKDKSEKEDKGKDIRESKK"}, "[2]": {"biological_target": "rat brain type IIA α sub-unit of the voltage-gated sodium channel (rat) (UniProt P04775)", "remark": "listed apart in the source"}, "[3]": {"biological_target": "rat brain type IIA α sub-unit of the voltage-gated sodium channel (rat) (UniProt P04775)", "remark": "listed apart in the source"}},
  "note": "Where two headings read alike, the source gives them in different places.",
  "data": [
    {"molecule": "rat voltage-gated sodium channel β1 sub-unit (from UniProt Q00954 19-218)", "values": [
      {"measurement": "Inactivation timecourse, Percentage in fast mode", "setting": "[1]", "result": 95, "unit": "%"},
      {"measurement": "Inactivation timecourse, time constant 1", "setting": "[1]", "result": 1.4, "unit": "ms"},
      {"measurement": "Inactivation timecourse, time constant 2", "setting": "[1]", "result": 24.7, "unit": "ms"},
      {"measurement": "Recovery from inactivation, Percentage in fast mode", "setting": "[1]", "result": 84, "unit": "%"},
      {"measurement": "Recovery from inactivation, time constant 1", "setting": "[1]", "result": 2, "unit": "ms"},
      {"measurement": "Recovery from inactivation, time constant 2", "setting": "[1]", "result": 148, "unit": "ms"},
      {"measurement": "Voltage-dependence of inactivation, V½ (mV)", "setting": "[1]", "result": -49.1, "unit": "mV"},
      {"measurement": "Voltage-dependence of inactivation, k (mV)", "setting": "[1]", "result": 5.9, "unit": "mV"},
      {"measurement": "inactivation time constant 1 at -10 mV (two-electrode voltage clamp, oocytes)", "setting": "[1]", "result": 1.3, "unit": "ms"},
      {"measurement": "inactivation time constant 2 at -10 mV (two-electrode voltage clamp, oocytes)", "setting": "[1]", "result": 22.7, "unit": "ms"}
    ]},
    {"molecule": "rat voltage-gated sodium channel β3 sub-unit (protein) VCVEVPSETEAVQGNPMKLRCISCMKREEVEATTVVEWFYRPEGGKDFLIYEYRNGHQEVESPFQGRLQWNGSKDLQDVSITVLNVTLNDSGLYTCNVSREFEFEAHRPFVKTTRLIPLRVTEEAGEDFTSVVSEIMMYILLVFLTLWLFIEMIYCYRKVSKAEEAAQENASDYLAIPSENKENSVVPVEE", "values": [
      {"measurement": "Inactivation timecourse, Percentage in fast mode", "setting": "[2]", "result": 85, "unit": "%"},
      {"measurement": "Inactivation timecourse, time constant 1", "setting": "[2]", "result": 1.5, "unit": "ms"},
      {"measurement": "Inactivation timecourse, time constant 2", "setting": "[2]", "result": 24.7, "unit": "ms"},
      {"measurement": "Recovery from inactivation, Percentage in fast mode", "setting": "[2]", "result": 73, "unit": "%"},
      {"measurement": "Recovery from inactivation, time constant 1", "setting": "[2]", "result": 4.1, "unit": "ms"},
      {"measurement": "Recovery from inactivation, time constant 2", "setting": "[2]", "result": 170, "unit": "ms"},
      {"measurement": "Voltage-dependence of inactivation, V½ (mV)", "setting": "[2]", "result": -49.3, "unit": "mV"},
      {"measurement": "Voltage-dependence of inactivation, k (mV)", "setting": "[2]", "result": 6.1, "unit": "mV"},
      {"measurement": "inactivation time constant 1 at -10 mV (two-electrode voltage clamp, oocytes)", "setting": "[2]", "result": 1, "unit": "ms"},
      {"measurement": "inactivation time constant 2 at -10 mV (two-electrode voltage clamp, oocytes)", "setting": "[2]", "result": 23.8, "unit": "ms"},
      {"measurement": "steady-state inactivation, V1/2 (midpoint)", "setting": "[2]", "result": -49.4, "unit": "mV"},
      {"measurement": "Recovery from inactivation, time constant 1", "setting": "[3]", "result": 1.9, "unit": "ms"},
      {"measurement": "Recovery from inactivation, time constant 2", "setting": "[3]", "result": 198, "unit": "ms"}
    ]},
    {"molecule": "human voltage-gated sodium channel β3 sub-unit (protein) FPVCVEVPSETEAVQGNPMKLRCISCMKREEVEATTVVEWFYRPEGGKDFLIYEYRNGHQEVESPFQGRLQWNGSKDLQDVSITVLNVTLNDSGLYTCNVSREFEFEAHRPFVKTTRLIPLRVTEEAGEDFTSVVSEIMMYILLVFLTLWLLIEMIYCYRKVSKAEEAAQENASDYLAIPSENKENSAVPVEE", "values": [
      {"measurement": "inactivation time constant 1", "setting": "[2]", "result": 1, "unit": "ms"},
      {"measurement": "inactivation time constant 2", "setting": "[2]", "result": 9.1, "unit": "ms"}
    ]}
  ]
}
